The values below are quoted from earlier work in paper PMC4472561 (The FEBS journal, 2015).

In data set [1] the test system is CD8^+ cytotoxic effector memory T cells. As to conditions: in words; ref [25].
A further data set concerns the target Kv1.1 (UniProt Q09470).
The subject of the next data set is neural progenitor cells. The settings on record: in words; ref [24].

pKd: −log10 of the molar value.

Sequence of UniProt Q09470 (Q09470 whole entry): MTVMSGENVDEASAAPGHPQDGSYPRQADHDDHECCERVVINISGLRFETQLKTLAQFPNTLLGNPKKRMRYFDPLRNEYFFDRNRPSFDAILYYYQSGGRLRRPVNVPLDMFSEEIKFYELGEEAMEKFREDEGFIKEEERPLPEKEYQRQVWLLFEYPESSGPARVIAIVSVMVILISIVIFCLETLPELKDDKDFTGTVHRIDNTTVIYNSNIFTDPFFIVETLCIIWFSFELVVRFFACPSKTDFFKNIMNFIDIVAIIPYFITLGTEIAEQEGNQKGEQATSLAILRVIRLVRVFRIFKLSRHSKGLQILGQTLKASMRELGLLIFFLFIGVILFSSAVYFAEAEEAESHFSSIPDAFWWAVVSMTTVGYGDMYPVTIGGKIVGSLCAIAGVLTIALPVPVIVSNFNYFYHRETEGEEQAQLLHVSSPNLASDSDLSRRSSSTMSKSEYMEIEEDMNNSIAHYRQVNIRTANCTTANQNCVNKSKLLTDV

Consider ChTx, for which the “proliferation of CD8+ cytotoxic effector memory T cells and secretion of granzyme B” value in data set [1] was “blocked the proliferation of CD8^+ cytotoxic effector memory T cells and their secretion of granzyme B”.

What is called pKd is the Kd on a negative log10 scale, so that one unit is a factor of ten. Regarding ShK (from UniProt P29187), the pKd with Kv1.1 is 10.80.

Consider “MgTx (TIINVKCTSPKQCLPPCKAQFGQSAGAKCMNGKCKCYPH; UniProt P40755 1-39, looked up)”, for which the “differentiation of neural progenitor cells into neurons” value in the data set with neural progenitor cells is “increased the differentiation of neural progenitor cells into neurons and enhanced neuron-regeneration”. The “proliferation of CD8+ cytotoxic effector memory T cells and secretion of granzyme B” value in data set [1] was “blocked the proliferation of CD8^+ cytotoxic effector memory T cells and their secretion of granzyme B”.
